Where “and” joins values, the source holds several entries; their conditions need not be identical. Equal values may be shown once.
Tested on: CodY (Streptococcus agalactiae (Group B Streptococcus) BM110)
Experiment: EMSA
Details: EMSA as in Barbieri et al. 2015 (buffer, salt, pH, temperature not given); 50 nM FAM probe; 5% non-denaturing Tris-glycine polyacrylamide gel; 10 mM each ILV …

livKp220 (livK regulatory region, WT) was tested, and the Kd was 50 nM and 150 nM.

— publication PMC9096947
